# Measurements published in patent US20230074436A1 (DENALI THERAPEUTICS, published 2023).
# No end group written: not given here. *: point of attachment. Biotin = O=C1N[C@H]2[C@H](CS[C@H]2CCCCC(=O)*)N1
# B1: 20H4 (antibody, rat IgG2b, V domains shown)
# VH: AVQLVESGGGLVQPKESLKISCAASGFTFSNAAMYWVRQAPGKGLELLARIRTKPNNYATYHADSVKGRFTISRDDSQSMVYLHMGNLKTEDTAMYYCTADMATGDYWGPGVMVTVSS
# VL: DIQMTQSPPVLSVSVGDRVTLSCKASQNINKNLDWYQQKHGEAPKPLIYSTNNLQTGVPSRFSGSGSGTDYTLTISSLQPEDVATYYCYQYKSAWTFGGGTKLELR
# notes: also called clone 20H4; rat 20H4
# What was measured:
# asyn_113-127 [1] = target: T1, asyn_113-127 (human); assay: Ala-scan peptide ELISA, row A, run 1
# T1 construct: also called pep1
# T1 peptide: Biotin-LEDMPVDPDNEAYEM
# Method: (§1) 96-well Nunc plates were coated with 50 μL per well of 1 μg/mL streptavidin (from Jackson Immuno Research Laboratory) in PBS at 4° C. overnight. The plates were washed three times with PBST, and blocked with PBS containing 3% BSA at room temperature for 1 hour. The N-terminal biotinylated peptides were dissolved in Milli Q water to a concentration of 2 mg/mL, then further diluted to a concentration of 2 μg/mL with PBS. 50 μl of the diluted peptide was applied to the streptavidin-coated plates and incubated at 4° C. overnight. 2 μg/mL of biotinylated human alpha-synuclein was used as the positive control. The plates were washed three times with PBST before use. Purified antibody was diluted by serial dilution methods, from 20 μg/mL to 1 ng/mL, and 50 μL of the antibody solution was added to the peptide-coated wells. The plates were incubated for 1 hour at room temperature, then washed three times with PBST. Secondary detection antibody (goat anti-rat HRP (obtained from Southern Biotech)) was added with 1:5,000 dilutions and incubated for 1 hour at room temperature, then washed three times with PBST. Plates were developed with 50 μL/well of TMB substrate (Thermo Fisher) and quenched with 50 μL/well of 1 N sulfuric acid. The signal was quantified on a BioTek® plate reader at A450. A parallel repeat was performed for each peptide in a separate plate.
# asyn_113-127_113A [2] = target: T2, asyn_113-127_113A (human); assay: Ala-scan peptide ELISA, row A, run 1
# T2 construct: substitution is already in the entry; also called pep2
# T2 peptide: Biotin-AEDMPVDPDNEAYEM
# Method: as §1
# asyn_113-127_114A [3] = target: T3, asyn_113-127_114A (human); assay: Ala-scan peptide ELISA, row A, run 1
# T3 construct: substitution is already in the entry; also called pep3
# T3 peptide: Biotin-LADMPVDPDNEAYEM
# Method: as §1
# asyn_113-127_115A [4] = target: T4, asyn_113-127_115A (human); assay: Ala-scan peptide ELISA, row A, run 1
# T4 construct: substitution is already in the entry; also called pep4
# T4 peptide: Biotin-LEAMPVDPDNEAYEM
# Method: as §1
# asyn_113-127_116A [5] = target: T5, asyn_113-127_116A (human); assay: Ala-scan peptide ELISA, row A, run 1
# T5 construct: substitution is already in the entry; also called pep5
# T5 peptide: Biotin-LEDAPVDPDNEAYEM
# Method: as §1
# asyn_113-127_117A [6] = target: T6, asyn_113-127_117A (human); assay: Ala-scan peptide ELISA, row A, run 1
# T6 construct: substitution is already in the entry; also called pep6
# T6 peptide: Biotin-LEDMAVDPDNEAYEM
# Method: as §1
# asyn_113-127_118A [7] = target: T7, asyn_113-127_118A (human); assay: Ala-scan peptide ELISA, row A, run 1
# T7 construct: substitution is already in the entry; also called pep7
# T7 peptide: Biotin-LEDMPADPDNEAYEM
# Method: as §1
# asyn_113-127_119A [8] = target: T8, asyn_113-127_119A (human); assay: Ala-scan peptide ELISA, row A, run 1
# T8 construct: substitution is already in the entry; also called pep8
# T8 peptide: Biotin-LEDMPVAPDNEAYEM
# Method: as §1
# asyn_113-127_120A [9] = target: T9, asyn_113-127_120A (human); assay: Ala-scan peptide ELISA, row A, run 1
# T9 construct: substitution is already in the entry; also called pep9
# T9 peptide: Biotin-LEDMPVDADNEAYEM
# Method: as §1
# asyn_113-127_121A [10] = target: T10, asyn_113-127_121A (human); assay: Ala-scan peptide ELISA, row A, run 1
# T10 construct: substitution is already in the entry; also called pep10
# T10 peptide: Biotin-LEDMPVDPANEAYEM
# Method: as §1
# asyn_113-127_122A [11] = target: T11, asyn_113-127_122A (human); assay: Ala-scan peptide ELISA, row A, run 1
# T11 construct: substitution is already in the entry; also called pep11
# T11 peptide: Biotin-LEDMPVDPDAEAYEM
# Method: as §1
# asyn_113-127_123A [12] = target: T12, asyn_113-127_123A (human); assay: Ala-scan peptide ELISA, row A, run 1
# T12 construct: substitution is already in the entry; also called pep12
# T12 peptide: Biotin-LEDMPVDPDNAAYEM
# Method: as §1
# asyn_113-127_124G [13] = target: T13, asyn_113-127_124G (human); assay: Ala-scan peptide ELISA, row A, run 1
# T13 construct: substitution is already in the entry; also called pep13
# T13 peptide: Biotin-LEDMPVDPDNEGYEM
# Method: as §1
# asyn_113-127_124P [14] = target: T14, asyn_113-127_124P (human); assay: Ala-scan peptide ELISA, row A, run 1
# T14 construct: substitution is already in the entry; also called pep14
# T14 peptide: Biotin-LEDMPVDPDNEPYEM
# Method: as §1
# asyn_113-127_125A [15] = target: T15, asyn_113-127_125A (human); assay: Ala-scan peptide ELISA, row A, run 1
# T15 construct: substitution is already in the entry; also called pep15
# T15 peptide: Biotin-LEDMPVDPDNEAAEM
# Method: as §1
# asyn_113-127_126A [16] = target: T16, asyn_113-127_126A (human); assay: Ala-scan peptide ELISA, row A, run 1
# T16 construct: substitution is already in the entry; also called pep16
# T16 peptide: Biotin-LEDMPVDPDNEAYAM
# Method: as §1
# asyn_113-127_127A [17] = target: T17, asyn_113-127_127A (human); assay: Ala-scan peptide ELISA, row A, run 1
# T17 construct: substitution is already in the entry; also called pep17
# T17 peptide: Biotin-LEDMPVDPDNEAYEA
# Method: as §1
# [18] = target: T18, biotinylated human alpha-synuclein (human, UniProt P37840 1-140); assay: Ala-scan peptide ELISA, row A, run 1
# Method: as §1
# asyn_113-127 [19] = target: T1, asyn_113-127; assay: Ala-scan peptide ELISA, row D, run 1
# Method: as §1
# asyn_113-127_113A [20] = target: T2, asyn_113-127_113A; assay: Ala-scan peptide ELISA, row D, run 1
# Method: as §1
# asyn_113-127_114A [21] = target: T3, asyn_113-127_114A; assay: Ala-scan peptide ELISA, row D, run 1
# Method: as §1
# asyn_113-127_115A [22] = target: T4, asyn_113-127_115A; assay: Ala-scan peptide ELISA, row D, run 1
# Method: as §1
# asyn_113-127_116A [23] = target: T5, asyn_113-127_116A; assay: Ala-scan peptide ELISA, row D, run 1
# Method: as §1
# asyn_113-127_117A [24] = target: T6, asyn_113-127_117A; assay: Ala-scan peptide ELISA, row D, run 1
# Method: as §1
# asyn_113-127_118A [25] = target: T7, asyn_113-127_118A; assay: Ala-scan peptide ELISA, row D, run 1
# Method: as §1
# asyn_113-127_119A [26] = target: T8, asyn_113-127_119A; assay: Ala-scan peptide ELISA, row D, run 1
# Method: as §1
# asyn_113-127_120A [27] = target: T9, asyn_113-127_120A; assay: Ala-scan peptide ELISA, row D, run 1
# Method: as §1
# asyn_113-127_121A [28] = target: T10, asyn_113-127_121A; assay: Ala-scan peptide ELISA, row D, run 1
# Method: as §1
# asyn_113-127_122A [29] = target: T11, asyn_113-127_122A; assay: Ala-scan peptide ELISA, row D, run 1
# Method: as §1
# asyn_113-127_123A [30] = target: T12, asyn_113-127_123A; assay: Ala-scan peptide ELISA, row D, run 1
# Method: as §1
# asyn_113-127_124G [31] = target: T13, asyn_113-127_124G; assay: Ala-scan peptide ELISA, row D, run 1
# Method: as §1
# asyn_113-127_124P [32] = target: T14, asyn_113-127_124P; assay: Ala-scan peptide ELISA, row D, run 1
# Method: as §1
# asyn_113-127_125A [33] = target: T15, asyn_113-127_125A; assay: Ala-scan peptide ELISA, row D, run 1
# Method: as §1
# asyn_113-127_126A [34] = target: T16, asyn_113-127_126A; assay: Ala-scan peptide ELISA, row D, run 1
# Method: as §1
# asyn_113-127_127A [35] = target: T17, asyn_113-127_127A; assay: Ala-scan peptide ELISA, row D, run 1
# Method: as §1
# [36] = target: T18, biotinylated human alpha-synuclein; assay: Ala-scan peptide ELISA, row D, run 1
# Method: as §1
binder,measurement,setting,value
B1,A450,asyn_113-127 [1],0.545 OD
same,A450,asyn_113-127_113A [2],0.529 OD
same,A450,asyn_113-127_114A [3],0.505 OD
same,A450,asyn_113-127_115A [4],0.502 OD
same,A450,asyn_113-127_116A [5],0.524 OD
same,A450,asyn_113-127_117A [6],0.55 OD
same,A450,asyn_113-127_118A [7],0.504 OD
same,A450,asyn_113-127_119A [8],0.063 OD
same,A450,asyn_113-127_120A [9],0.414 OD
same,A450,asyn_113-127_121A [10],0.496 OD
same,A450,asyn_113-127_122A [11],0.06 OD
same,A450,asyn_113-127_123A [12],0.533 OD
same,A450,asyn_113-127_124G [13],0.371 OD
same,A450,asyn_113-127_124P [14],0.055 OD
same,A450,asyn_113-127_125A [15],0.053 OD
same,A450,asyn_113-127_126A [16],0.371 OD
same,A450,asyn_113-127_127A [17],0.338 OD
same,A450,[18],0.66 OD
same,A450,asyn_113-127 [19],0.421 OD
same,A450,asyn_113-127_113A [20],0.422 OD
same,A450,asyn_113-127_114A [21],0.387 OD
same,A450,asyn_113-127_115A [22],0.332 OD
same,A450,asyn_113-127_116A [23],0.414 OD
same,A450,asyn_113-127_117A [24],0.431 OD
same,A450,asyn_113-127_118A [25],0.415 OD
same,A450,asyn_113-127_119A [26],0.051 OD
same,A450,asyn_113-127_120A [27],0.277 OD
same,A450,asyn_113-127_121A [28],0.358 OD
same,A450,asyn_113-127_122A [29],0.051 OD
same,A450,asyn_113-127_123A [30],0.43 OD
same,A450,asyn_113-127_124G [31],0.336 OD
same,A450,asyn_113-127_124P [32],0.044 OD
same,A450,asyn_113-127_125A [33],0.047 OD
same,A450,asyn_113-127_126A [34],0.375 OD
same,A450,asyn_113-127_127A [35],0.357 OD
same,A450,[36],0.491 OD
